In assay [1] the target is LUJV glycoprotein-2 (GP2) (Lujo virus (LUJV)). The assay can be described thus: cryo-EM structure.
In assay [2] the target is LUJV glycoprotein-1 (GP1) (Lujo virus (LUJV)). Kind of assay: cryo-EM structure.

For “LUJV glycoprotein-2 (GP2) (domain or fragment)”, in assay [1], the stoichiometry N came out at 3.

Regarding “LUJV glycoprotein-1 (GP1) (domain or fragment)”, the stoichiometry N in assay [2] turned out to be 3.

Broadly, the stoichiometry N is the number of molecules, sites or subunits per partner or assembly.

Source of the values: PMC11339409.
